Measurements from patent publication US20090022728A1 (RINAT NEUROSCIENCE, published 2009).

Experiments:
[1] = target: T1, biotinylated Aβ1-40 peptide (biotinylated (N-biotinylated in Example 7)); assay: SPR, Fab over Aβ1-40 on SA chip; KD=koff/kon
T1 construct: captured on streptavidin (SA) chip; also called Biotinylated Aβ peptide 1-40; Aβ1-40 on SA chip
Procedure: (§1) Affinities of 9TL Fab fragment and its variants Fab fragments were determined by Surface Plasmon Resonance (SPR) system (BIAcore 3000™, BIAcore, Inc., Piscaway, N.J.). SA chips (streptavidin) were used according to the supplier's instructions. Biotinylated Aβ peptide 1-40 was diluted into HBS-EP (10 mM HEPES pH 7.4, 150 mM NaCl, 3 mM EDTA, 0.005% P20) and injected over the chip at a concentration of 0.005 mg/mL. Using variable flow time across the individual chip channels, two ranges of antigen density were achieved: 10-200 response units (RU) for detailed kinetic studies and 500-600 RU for concentration studies and screening. […] HBS-EP buffer was used as running buffer for all the BIAcore assays. […] The concentrations of the Fab proteins were determined by ELISA and/or SDS-PAGE electrophoresis using a standard Fab of known concentration (determined by amino acid analysis). Kinetic association rates (kₒₙ) and dissociation rates (koff) were obtained simultaneously by fitting the data to a 1:1 Langmuir binding model (Karlsson, R. Roos, H. Fagerstam, L. Petersson, B. (1994). Methods Enzymology 6. 99-110) using the BIAevaluation program. Equilibrium dissociation constant (KD) values were calculated as koff/kₒₙ.
(§2) All amino acid substitutions of the variants shown in Table 3 are described relative to the sequence of 9TL. KD and other kinetic parameters were determined by BIAcore analysis described above with Aβ₁₋₄₀ immobilized on SA chip.

[2] = target: T1, biotinylated Aβ1-40 peptide; assay: SPR, Fab over Aβ1-40 on SA chip
Procedure: as §1, §2

[3] = target: T1, biotinylated Aβ1-40 peptide; assay: SPR, Fab over Aβ1-40 on SA chip; kon may be assumed = 9TL (footnote 2)
Procedure: as §1, §2

T1 sequence (peptide, as listed by the source): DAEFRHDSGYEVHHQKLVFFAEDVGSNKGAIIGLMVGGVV

| Binder | Kd [1] [nM] | koff [2] [s⁻¹] | kon [3] [M⁻¹ s⁻¹] | kon [2] [M⁻¹ s⁻¹] |
| --- | --- | --- | --- | --- |
| 9TL variant 22-T/I Fab (Fab, V domains shown, Fab; human IgG2 CH1 and kappa CL) VH: QVQLVQSGAEVKKPGASVKVSCKASGYYTEAYYIHWVRQAPGQGLEWMGRIDPATGNTKYAPRLQDRVTMTRDTSTSTVYMELSSLRSEDTAVYYCASLYSLPVYWGQGTTVTVSS VL: DVVMTQSPLSLPVTLGQPASISCKSSQSLLYSDAKTYLNWFQQRPGQSPRRLIYQISRLDPGVPDRFSGSGSGTDFTLKISRVEAEDVGVYYCLQGTHYPVIFGQGTRLEIKR | 1.45 | 0.00046 | 318000 | – |
| 9TL variant M4 Fab (Fab, V domains shown, Fab; human IgG2 CH1 and kappa CL) VH: QVQLVQSGAEVKKPGASVKVSCKASGYYTEAYYIHWVRQAPGQGLEWMGRIDPATGNTKYAPRLQDRVTMTRDTSTSTVYMELSSLRSEDTAVYYCASLYSLPVYWGQGTTVTVSS VL: DVVMTQSPLSLPVTLGQPASISCKSSQSLLYSDAKTYLNWFQQRPGQSPRRLIYQISRLDPGVPDRFSGSGSGTDFTLKISRVEAEDVGVYYCFQGTHYPVLFGQGTRLEIKR | 3.13 | 0.000995 | 318000 | – |
| 9TL variant M9 Fab (Fab, V domains shown, Fab; human IgG2 CH1 and kappa CL) VH: QVQLVQSGAEVKKPGASVKVSCKASGYYTEAYYIHWVRQAPGQGLEWMGRIDPATGNTKYAPRLQDRVTMTRDTSTSTVYMELSSLRSEDTAVYYCASLYSLPVYWGQGTTVTVSS VL: DVVMTQSPLSLPVTLGQPASISCKSSQSLLYSDAKTYLNWFQQRPGQSPRRLIYQISRLDPGVPDRFSGSGSGTDFTLKISRVEAEDVGVYYCGQGTHYPVLFGQGTRLEIKR | 24.5 | 0.0078 | 318000 | – |
| 9TL variant M7 Fab (Fab, V domains shown, Fab; human IgG2 CH1 and kappa CL) VH: QVQLVQSGAEVKKPGASVKVSCKASGYYTEAYYIHWVRQAPGQGLEWMGRIDPATGNTKYAPRLQDRVTMTRDTSTSTVYMELSSLRSEDTAVYYCASLYSLPVYWGQGTTVTVSS VL: DVVMTQSPLSLPVTLGQPASISCKSSQSLLYSDAKTYLNWFQQRPGQSPRRLIYQISRLDPGVPDRFSGSGSGTDFTLKISRVEAEDVGVYYCSQGTHYPVLFGQGTRLEIKR | 18.9 | 0.006 | 318000 | – |
| 9TL variant M6 Fab (Fab, V domains shown, Fab; human IgG2 CH1 and kappa CL) VH: QVQLVQSGAEVKKPGASVKVSCKASGYYTEAYYIHWVRQAPGQGLEWMGRIDPATGNTKYAPRLQDRVTMTRDTSTSTVYMELSSLRSEDTAVYYCASLYSLPVYWGQGTTVTVSS VL: DVVMTQSPLSLPVTLGQPASISCKSSQSLLYSDAKTYLNWFQQRPGQSPRRLIYQISRLDPGVPDRFSGSGSGTDFTLKISRVEAEDVGVYYCKQGTHYPVLFGQGTRLEIKR | 12.9 | 0.0041 | 318000 | – |
| 9TL variant M2 Fab (Fab, V domains shown, Fab; human IgG2 CH1 and kappa CL) VH: QVQLVQSGAEVKKPGASVKVSCKASGYYTEAYYIHWVRQAPGQGLEWMGRIDPATGNTKYAPRLQDRVTMTRDTSTSTVYMELSSLRSEDTAVYYCASLYSLPVYWGQGTTVTVSS VL: DVVMTQSPLSLPVTLGQPASISCKSSQSLLYSDAKTYLNWFQQRPGQSPRRLIYQISRLDPGVPDRFSGSGSGTDFTLKISRVEAEDVGVYYCNQGTHYPVLFGQGTRLEIKR | 3.46 | 0.0011 | 318000 | – |
| 9TL variant C6 new Fab (Fab, V domains shown, Fab; human IgG2 CH1 and kappa CL) VH: QVQLVQSGAEVKKPGASVKVSCKASGYYTEAYYIHWVRQAPGQGLEWMGRIDPATGNTKYAPRLQDRVTMTRDTSTSTVYMELSSLRSEDTAVYYCASLYSLPVYWGQGTTVTVSS VL: DVVMTQSPLSLPVTLGQPASISCKSSQSLLYSDAKTYLNWFQQRPGQSPRRLIYQISRLDPGVPDRFSGSGSGTDFTLKISRVEAEDVGVYYCLQGTHYPVTFGQGTRLEIKR | 2.58 | 0.00092 | – | 356000 |
| 9TL variant M8 Fab (Fab, V domains shown, Fab; human IgG2 CH1 and kappa CL) VH: QVQLVQSGAEVKKPGASVKVSCKASGYYTEAYYIHWVRQAPGQGLEWMGRIDPATGNTKYAPRLQDRVTMTRDTSTSTVYMELSSLRSEDTAVYYCASLYSLPVYWGQGTTVTVSS VL: DVVMTQSPLSLPVTLGQPASISCKSSQSLLYSDAKTYLNWFQQRPGQSPRRLIYQISRLDPGVPDRFSGSGSGTDFTLKISRVEAEDVGVYYCQQGTHYPVLFGQGTRLEIKR | 21.4 | 0.0068 | 318000 | – |
| 9TL variant M1 Fab (Fab, V domains shown, Fab; human IgG2 CH1 and kappa CL) VH: QVQLVQSGAEVKKPGASVKVSCKASGYYTEAYYIHWVRQAPGQGLEWMGRIDPATGNTKYAPRLQDRVTMTRDTSTSTVYMELSSLRSEDTAVYYCASLYSLPVYWGQGTTVTVSS VL: DVVMTQSPLSLPVTLGQPASISCKSSQSLLYSDAKTYLNWFQQRPGQSPRRLIYQISRLDPGVPDRFSGSGSGTDFTLKISRVEAEDVGVYYCMQGTHYPVLFGQGTRLEIKR | 2.7 | 0.00086 | 318000 | – |
| 9TL variant M3 Fab (Fab, V domains shown, Fab; human IgG2 CH1 and kappa CL) VH: QVQLVQSGAEVKKPGASVKVSCKASGYYTEAYYIHWVRQAPGQGLEWMGRIDPATGNTKYAPRLQDRVTMTRDTSTSTVYMELSSLRSEDTAVYYCASLYSLPVYWGQGTTVTVSS VL: DVVMTQSPLSLPVTLGQPASISCKSSQSLLYSDAKTYLNWFQQRPGQSPRRLIYQISRLDPGVPDRFSGSGSGTDFTLKISRVEAEDVGVYYCCQGTHYPVLFGQGTRLEIKR | 4.09 | 0.0013 | 318000 | – |

Results, then the binder that gave them:

| Kd [1] [nM] | koff [2] [s⁻¹] | kon [3] [M⁻¹ s⁻¹] | kon [2] [M⁻¹ s⁻¹] | Binder |
| --- | --- | --- | --- | --- |
| 2.2 | 0.0007 | 318000 | – | 9TL variant M16 Fab (Fab, V domains shown, Fab; human IgG2 CH1 and kappa CL) VH: QVQLVQSGAEVKKPGASVKVSCKASGYYTEAYYIHWVRQAPGQGLEWMGRIDPATGNTKYAPRLQDRVTMTRDTSTSTVYMELSSLRSEDTAVYYCASLYSLPVYWGQGTTVTVSS VL: DVVMTQSPLSLPVTLGQPASISCKSSQSLLYSDAKTYLNWFQQRPGQSPRRLIYQISRLDPGVPDRFSGSGSGTDFTLKISRVEAEDVGVYYCLQGTHAPVLFGQGTRLEIKR |
| 5.03 | 0.0016 | 318000 | – | 9TL variant M14 Fab (Fab, V domains shown, Fab; human IgG2 CH1 and kappa CL) VH: QVQLVQSGAEVKKPGASVKVSCKASGYYTEAYYIHWVRQAPGQGLEWMGRIDPATGNTKYAPRLQDRVTMTRDTSTSTVYMELSSLRSEDTAVYYCASLYSLPVYWGQGTTVTVSS VL: DVVMTQSPLSLPVTLGQPASISCKSSQSLLYSDAKTYLNWFQQRPGQSPRRLIYQISRLDPGVPDRFSGSGSGTDFTLKISRVEAEDVGVYYCLQGTLYPVLFGQGTRLEIKR |
| 1.23 | 0.00039 | 318000 | – | 9TL variant M13 Fab (Fab, V domains shown, Fab; human IgG2 CH1 and kappa CL) VH: QVQLVQSGAEVKKPGASVKVSCKASGYYTEAYYIHWVRQAPGQGLEWMGRIDPATGNTKYAPRLQDRVTMTRDTSTSTVYMELSSLRSEDTAVYYCASLYSLPVYWGQGTTVTVSS VL: DVVMTQSPLSLPVTLGQPASISCKSSQSLLYSDAKTYLNWFQQRPGQSPRRLIYQISRLDPGVPDRFSGSGSGTDFTLKISRVEAEDVGVYYCLQGSHYPVLFGQGTRLEIKR |
| 2.11 | 0.00067 | 318000 | – | 9TL variant M15 Fab (Fab, V domains shown, Fab; human IgG2 CH1 and kappa CL) VH: QVQLVQSGAEVKKPGASVKVSCKASGYYTEAYYIHWVRQAPGQGLEWMGRIDPATGNTKYAPRLQDRVTMTRDTSTSTVYMELSSLRSEDTAVYYCASLYSLPVYWGQGTTVTVSS VL: DVVMTQSPLSLPVTLGQPASISCKSSQSLLYSDAKTYLNWFQQRPGQSPRRLIYQISRLDPGVPDRFSGSGSGTDFTLKISRVEAEDVGVYYCLQGTHPPVLFGQGTRLEIKR |
| 10.4 | 0.0033 | 318000 | – | 9TL variant M12 Fab (Fab, V domains shown, Fab; human IgG2 CH1 and kappa CL) VH: QVQLVQSGAEVKKPGASVKVSCKASGYYTEAYYIHWVRQAPGQGLEWMGRIDPATGNTKYAPRLQDRVTMTRDTSTSTVYMELSSLRSEDTAVYYCASLYSLPVYWGQGTTVTVSS VL: DVVMTQSPLSLPVTLGQPASISCKSSQSLLYSDAKTYLNWFQQRPGQSPRRLIYQISRLDPGVPDRFSGSGSGTDFTLKISRVEAEDVGVYYCLQTTHYPVLFGQGTRLEIKR |
| 26.1 | 0.0083 | 318000 | – | 9TL variant M10 Fab (Fab, V domains shown, Fab; human IgG2 CH1 and kappa CL; same printed substitution as M7) VH: QVQLVQSGAEVKKPGASVKVSCKASGYYTEAYYIHWVRQAPGQGLEWMGRIDPATGNTKYAPRLQDRVTMTRDTSTSTVYMELSSLRSEDTAVYYCASLYSLPVYWGQGTTVTVSS VL: DVVMTQSPLSLPVTLGQPASISCKSSQSLLYSDAKTYLNWFQQRPGQSPRRLIYQISRLDPGVPDRFSGSGSGTDFTLKISRVEAEDVGVYYCSQGTHYPVLFGQGTRLEIKR |
| 6.29 | 0.002 | 318000 | – | 9TL variant M11 Fab (Fab, V domains shown, Fab; human IgG2 CH1 and kappa CL) VH: QVQLVQSGAEVKKPGASVKVSCKASGYYTEAYYIHWVRQAPGQGLEWMGRIDPATGNTKYAPRLQDRVTMTRDTSTSTVYMELSSLRSEDTAVYYCASLYSLPVYWGQGTTVTVSS VL: DVVMTQSPLSLPVTLGQPASISCKSSQSLLYSDAKTYLNWFQQRPGQSPRRLIYQISRLDPGVPDRFSGSGSGTDFTLKISRVEAEDVGVYYCLQSTHYPVLFGQGTRLEIKR |
